The values below come from PMC10138814, “Structural Insights into the Binding of Red Fluorescent Protein mCherry-Specific Nanobodies” (International Journal of Molecular Sciences, 2023).

Common to all, as to settings: both partners purified
The target of assay [1] is T1, mCherry (Discosoma sp. DsRed-derived, engineered …, chromophore (residues not given)).
T1 construct: Engineered monomeric derivative of DsRed; also called His10-TEV site-mCherry (before cleavage); H10T-mCherry; source: E. coli BL21(DE3), purified (Ni-NTA, TEV cleavage on the column); not shown: His10, N-terminal, cleaved
Kind of assay: BLI; His-SUMO-LaM nanobody (100 nM) loaded on Ni-NTA biosensors; mCherry or DsRed in solution; 20 mM HEPES pH 7.4, 150 mM NaCl, 0.005% Tween-20; association 600 s, dissociation 600 s; 1:1 global fit. In general terms: BLI is a label-free optical method that tracks binding on a fibre tip over time.

Assay [2] concerns the target T1, mCherry. Kind of assay: ITC; 100 uM nanobody in the syringe into 10 uM mCherry (or 8.9 uM mCherry-LaM1 or mCherry-LaM3 complex) in the cell; 25 °C; one set of sites. In general terms: ITC needs no label: the signal is the heat of the interaction.
The target of another assay is T2, DsRed (Discosoma sp., UniProt Q9U6Y8).
T2 construct: DsRed red fluorescent protein; PDB 1ZGO was used for structural alignment; His6-SUMO-DsRed printed as 39.6 kD; also called tetrameric DsRed protein; His6-SUMO-DsRed (before cleavage); source: prokaryotic expression system, purified (tags removed by ULP1 on the column); not shown: His6, N-terminal, cleaved; SUMO, N-terminal, cleaved
Kind of assay: BLI; His-SUMO-LaM nanobody (100 nM) loaded on Ni-NTA biosensors; mCherry or DsRed in solution; 20 mM HEPES pH 7.4, 150 mM NaCl, 0.005% Tween-20; association 600 s, dissociation 600 s; 1:1 global fit.

T2 sequence (Q9U6Y8 whole entry): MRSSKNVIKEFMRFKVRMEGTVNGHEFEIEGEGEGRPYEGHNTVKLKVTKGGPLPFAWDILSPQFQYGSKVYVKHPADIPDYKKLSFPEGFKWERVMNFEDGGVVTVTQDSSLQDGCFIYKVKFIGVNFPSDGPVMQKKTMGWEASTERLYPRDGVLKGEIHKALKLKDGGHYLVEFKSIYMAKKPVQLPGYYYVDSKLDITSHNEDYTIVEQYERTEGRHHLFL

B1: His-SUMO-LaM8 (VHH)
VHH: QVQLVESGGGLVQAGGSLRLSCAVSGRPFSEYNLGWFRQAPGKEREFVARIRSSGTTVYTDSVKGRFSASRDNAKNMGYLQLNSLEPEDTAVYYCAMSRVDTDSPAFYDYWGQGTQVTVST
notes: held in PDB 8IM0; Captured by its His tag on NTA biosensors in BLI; vector pET28a-SUMO; also called Sumo-His tagged LaM8; source: E. coli BL21(DE3), purified (Ni-NTA, eluted with imidazole); not shown: His, N-terminal, kept; SUMO, N-terminal, kept
A word on the Kd: it is a measure of binding affinity in units of concentration. The low end stands for tighter binding, the high end for weaker binding. What is called koff is a measure of how fast the partners let go of each other. Usually kon stands for the second-order rate constant of association. In the case of B1, in the assay with mCherry [1], the Kd came to 36.8 nM, the koff turned out to be 0.00926 s⁻¹ and the on-rate constant (kon) came out at 252000 M⁻¹ s⁻¹.

B2: LaM8 (VHH)
VHH: QVQLVESGGGLVQAGGSLRLSCAVSGRPFSEYNLGWFRQAPGKEREFVARIRSSGTTVYTDSVKGRFSASRDNAKNMGYLQLNSLEPEDTAVYYCAMSRVDTDSPAFYDYWGQGTQVTVST
notes: Tag-removed form; also called llama nanobody against mCherry 8; source: E. coli BL21(DE3), purified (Ni-NTA, ULP1 cleavage on the column, ion exchange or size exclusion chromatography); not shown: His, N-terminal, cleaved; SUMO, N-terminal, cleaved
For orientation: stoichiometry N means a count of units in the complex or per binding partner. Regarding B2, in the assay with mCherry [2], the Kd amounted to 199 nM, the dH is -11.2 ± 1.51 kcal/mol and the “stoichiometry N” value was determined as 0.842 sites.

B3: His-SUMO-LaM3 (VHH)
VHH: QVQLVQSGGGLVQAGGSLRLSCAASGRTFSDIAVGWFRQTPGKEREFVAAISWSGLIINYGDSVEDRFTISRDNAKSAVYLQMNSLKPEDTAVYYCAARIGMNYYYAREIEYPYWGQGTQVTVSK
notes: held in PDB 8ILX; Captured by its His tag on NTA biosensors in BLI; vector pET28a-SUMO; also called Sumo-His tagged LaM3; source: E. coli BL21(DE3), purified (Ni-NTA, eluted with imidazole); not shown: His, N-terminal, kept; SUMO, N-terminal, kept
In the assay with mCherry [1], B3 displayed a Kd of 30.6 nM, a dissociation rate constant (koff) of 0.00324 s⁻¹ and a kon of 106000 M⁻¹ s⁻¹. Moreover, in the assay with DsRed, the Kd worked out at 7130 nM, the koff is 0.000443 s⁻¹ and the kon was found to be 62.2 ± 1.02 M⁻¹ s⁻¹.

B4: LaM3 (VHH)
VHH: QVQLVQSGGGLVQAGGSLRLSCAASGRTFSDIAVGWFRQTPGKEREFVAAISWSGLIINYGDSVEDRFTISRDNAKSAVYLQMNSLKPEDTAVYYCAARIGMNYYYAREIEYPYWGQGTQVTVSK
notes: Tag-removed form; also called llama nanobody against mCherry 3; source: E. coli BL21(DE3), purified (Ni-NTA, ULP1 cleavage on the column, ion exchange or size exclusion chromatography); not shown: His, N-terminal, cleaved; SUMO, N-terminal, cleaved
For the molecule B4, in the assay with mCherry [2], binding was put at a Kd of 13.7 nM, the dH was -13.7 ± 0.157 kcal/mol and the “stoichiometry N” value stood at 0.913 sites.

B5: His-SUMO-LaM1 (VHH)
VHH: QVQLVESGGGLVQAGDSLRLSCAASGRTFENYAMGWFRQAPGKEREFVGAVSWGGGRTYYADNVKGRFTISRDNAKKNTVYLQMNSLKPEDTAVYYCAAKSVLTIATMRVPDEYNYWGQGTQVTVS
notes: held in PDB 8IM1; Captured by its His tag on NTA biosensors in BLI; vector pET28a-SUMO; also called Sumo-His tagged LaM1; source: E. coli BL21(DE3), purified (Ni-NTA, eluted with imidazole); not shown: His, N-terminal, kept; SUMO, N-terminal, kept
For B5, in the assay with mCherry [1], binding was put at a Kd of 12.9 nM, the off-rate (koff) worked out at 0.00117 s⁻¹ and the kon was 91300 M⁻¹ s⁻¹.

B6: LaM1 (VHH)
VHH: QVQLVESGGGLVQAGDSLRLSCAASGRTFENYAMGWFRQAPGKEREFVGAVSWGGGRTYYADNVKGRFTISRDNAKKNTVYLQMNSLKPEDTAVYYCAAKSVLTIATMRVPDEYNYWGQGTQVTVS
notes: Tag-removed form; also called llama nanobody against mCherry 1; source: E. coli BL21(DE3), purified (Ni-NTA, ULP1 cleavage on the column, ion exchange or size exclusion chromatography); not shown: His, N-terminal, cleaved; SUMO, N-terminal, cleaved
On to B6, for which, in the assay with mCherry [2], binding was put at a Kd of 289 nM, the dH was -28.7 ± 0.906 kcal/mol and the “stoichiometry N” value worked out at 1 sites.
